Results as given in patent publication US10005817 (EUMEDERIS PHARMACEUTICALS, dated 2018).
Non-standard residues stand in square brackets, D forms with d. No end group written: not given here. *: point of attachment. Dmt = Cc1cc(O)cc(C)c1C[C@H](N)C(=O)O; Tic = O=C(O)[C@@H]1Cc2ccccc2CN1; NHBn = c1ccc(CN*)cc1

B1: EU-A180 (peptide)
peptide: H-[Dmt][Tic]FK(1'‑octyl β‑D‑glucuronyl)-NH2
B2: EU-A620 (peptide)
peptide: [Dmt][Tic]FK(1‑methyl β‑D‑glucuronyl)-NHBn
B3: EU-A639 (peptide)
peptide: [Dmt][Tic]F[dK](1‑methyl β‑D‑glucuronyl)-NHBn
B4: EU-A178 (peptide)
peptide: H-[Dmt][Tic]FK(1'‑methyl β‑D‑glucuronyl)-NH2

Target: mu opioid receptor
Sequence (P35372 whole entry): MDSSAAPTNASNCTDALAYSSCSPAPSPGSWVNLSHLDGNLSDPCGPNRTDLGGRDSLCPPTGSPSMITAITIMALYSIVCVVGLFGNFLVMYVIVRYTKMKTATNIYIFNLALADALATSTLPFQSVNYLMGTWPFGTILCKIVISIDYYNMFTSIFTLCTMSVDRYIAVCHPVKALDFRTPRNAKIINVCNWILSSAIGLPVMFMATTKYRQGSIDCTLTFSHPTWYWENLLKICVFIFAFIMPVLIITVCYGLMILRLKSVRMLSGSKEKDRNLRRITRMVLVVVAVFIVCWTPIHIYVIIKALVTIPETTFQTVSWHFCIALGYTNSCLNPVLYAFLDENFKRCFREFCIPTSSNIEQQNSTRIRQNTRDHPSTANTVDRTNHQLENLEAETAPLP
Experiment: cell-based or functional assay

Binder	MOP agonist EC50
B1	36 nM
B2	480 nM
B3	280 nM

Target: delta2 opioid receptor
Experiment: cell-based or functional assay

Binder	DOP antagonist IC50
B4	< 0.1 nM
B1	< 0.1 nM
B2	< 0.1 nM
B3	< 0.1 nM
